# In patent publication US20230406950A1 (LYVGEN BIOPHARMA, published 2023):
# B1: Ly457 (bispecific antibody, human IgG1, kappa)
# heavy: QVTLKESGPALVKPTQTLTLTCTFSGFSLSTSGTCVSWIRQPPGKALEWLATICWEDSKGYNPSLKSRLTISKDTSKNQAVLTMTNMDPVDTATYYCARREDSGYFWFPYWGQGTLVTVSSASTKGPSVFPLAPSSKSTSGGTAALGCLVKDYFPEPVTVSWNSGALTSGVHTFPAVLQSSGLYSLSSVVTVPSSSLGTQTYICNVNHKPSNTKVDKKVEPKSCDKTHTCPPCPAPELLGPSVFLFPPKPKDTLMISRTPEVTCVVVDVSHEDPEVKFNWYVDGVEVHNAKTKPREEQYNSTYRVVSVLTVLHQDWLNGKEYKCKVSNKALPAPIEKTISKAKGQPREPQVYTLPPSREEMTKNQVSLTCLVKGFYPSDIAVEWESNGQPENNYKTTPPVLDSDGSFFLYSKLTVDKSRWQQGNVFSCSVMHEALHNHYTQKSLSLSPGGGGGSGGGGSGGGGSGGGGSQVQLVQSGAEVKKPGASVKVSCKASGYTFAGFEMHWVRQAPGQGLEWMGAIDPKTGGTDYNQKFKDRVTMTRDTSISTAYMELSRLRSDDTAVYYCARDLGYFDVWGQGTLVTVSSGGGGSGGGGSGGGGSGGGGSDIQMTQSPSSLSASVGDRVTITCRASQDIRSNLNWYQQKPGGAVKLLIYYTSRLHSGVPSRFSGSGSGTDYTLTISSLQPEDFATYFCQQSEKLPRTFGGGTKVEIR
# light: NIQMTQSPSSLSASVGDRVTITCKAGQNVNNYLAWYQQKPGKAPKVLIFNANSLQTGVPSRFSGSGSGTDFTLTISSLQPEDFATYYCQQYNSWPTFGGGTKVEIKRTVAAPSVFIFPPSDEQLKSGTASVVCLLNNFYPREAKVQWKVDNALQSGNSQESVTEQDSKDSTYSLSSTLTLSKADYEKHKVYACEVTHQGLSSPVTKSFNRGEC
# notes: Anti-PD-1/CD137: Ly516 heavy chain fused to Ly1630 scFv (VH-VL); Ly516 light chain
# B2: Ly458 (bispecific antibody, human IgG1, kappa)
# heavy: QVTLKESGPALVKPTQTLTLTCTFSGFSLSTSGTCVSWIRQPPGKALEWLATICWEDSKGYNPSLKSRLTISKDTSKNQAVLTMTNMDPVDTATYYCARREDSGYFWFPYWGQGTLVTVSSASTKGPSVFPLAPSSKSTSGGTAALGCLVKDYFPEPVTVSWNSGALTSGVHTFPAVLQSSGLYSLSSVVTVPSSSLGTQTYICNVNHKPSNTKVDKKVEPKSCDKTHTCPPCPAPELLGPSVFLFPPKPKDTLMISRTPEVTCVVVDVSHEDPEVKFNWYVDGVEVHNAKTKPREEQYNSTYRVVSVLTVLHQDWLNGKEYKCKVSNKALPAPIEKTISKAKGQPREPQVYTLPPSREEMTKNQVSLTCLVKGFYPSDIAVEWESNGQPENNYKTTPPVLDSDGSFFLYSKLTVDKSRWQQGNVFSCSVMHEALHNHYTQKSLSLSPGK
# light: NIQMTQSPSSLSASVGDRVTITCKAGQNVNNYLAWYQQKPGKAPKVLIFNANSLQTGVPSRFSGSGSGTDFTLTISSLQPEDFATYYCQQYNSWPTFGGGTKVEIKRTVAAPSVFIFPPSDEQLKSGTASVVCLLNNFYPREAKVQWKVDNALQSGNSQESVTEQDSKDSTYSLSSTLTLSKADYEKHKVYACEVTHQGLSSPVTKSFNRGECGGGGSGGGGSGGGGSGGGGSDIQMTQSPSSLSASVGDRVTITCRASQDIRSNLNWYQQKPGGAVKLLIYYTSRLHSGVPSRFSGSGSGTDYTLTISSLQPEDFATYFCQQSEKLPRTFGGGTKVEIRGGGGSGGGGSGGGGSGGGGSQVQLVQSGAEVKKPGASVKVSCKASGYTFAGFEMHWVRQAPGQGLEWMGAIDPKTGGTDYNQKFKDRVTMTRDTSISTAYMELSRLRSDDTAVYYCARDLGYFDVWGQGTLVTVSS
# notes: Anti-PD-1/CD137: Ly516 heavy chain; Ly516 light chain fused to Ly1630 scFv (VL-VH)
# B3: Ly459 (bispecific antibody, human IgG1, kappa)
# heavy: B2 heavy
# light: NIQMTQSPSSLSASVGDRVTITCKAGQNVNNYLAWYQQKPGKAPKVLIFNANSLQTGVPSRFSGSGSGTDFTLTISSLQPEDFATYYCQQYNSWPTFGGGTKVEIKRTVAAPSVFIFPPSDEQLKSGTASVVCLLNNFYPREAKVQWKVDNALQSGNSQESVTEQDSKDSTYSLSSTLTLSKADYEKHKVYACEVTHQGLSSPVTKSFNRGECGGGGSGGGGSGGGGSGGGGSQVQLVQSGAEVKKPGASVKVSCKASGYTFAGFEMHWVRQAPGQGLEWMGAIDPKTGGTDYNQKFKDRVTMTRDTSISTAYMELSRLRSDDTAVYYCARDLGYFDVWGQGTLVTVSSGGGGSGGGGSGGGGSGGGGSDIQMTQSPSSLSASVGDRVTITCRASQDIRSNLNWYQQKPGGAVKLLIYYTSRLHSGVPSRFSGSGSGTDYTLTISSLQPEDFATYFCQQSEKLPRTFGGGTKVEIR
# notes: Anti-PD-1/CD137: Ly516 heavy chain; Ly516 light chain fused to Ly1630 scFv (VH-VL)
# B4: Ly740 (bispecific antibody, human IgG1, kappa)
# heavy: QVQLVQSGAEVKKPGASVKVSCKASGYTFAGFEMHWVRQAPGQGLEWMGAIDPKTGGTDYNQKFKDRVTMTRDTSISTAYMELSRLRSDDTAVYYCARDLGYFDVWGQGTLVTVSSASTKGPSVFPLAPSSKSTSGGTAALGCLVKDYFPEPVTVSWNSGALTSGVHTFPAVLQSSGLYSLSSVVTVPSSSLGTQTYICNVNHKPSNTKVDKKVEPKSCDKTHTCPPCPAPELLGPSVFLFPPKPKDTLMISRTPEVTCVVVDVSHEDPEVKFNWYVDGVEVHNAKTKPREEQYNSTYRVVSVLTVLHQDWLNGKEYKCKVSNKALPAPIEKTISKAKGQPREPQVYTLPPSREEMTKNQVSLTCLVKGFYPSDIAVEWESNGQPENNYKTTPPVLDSDGSFFLYSKLTVDKSRWQQGNVFSCSVMHEALHNHYTQKSLSLSPGK
# light: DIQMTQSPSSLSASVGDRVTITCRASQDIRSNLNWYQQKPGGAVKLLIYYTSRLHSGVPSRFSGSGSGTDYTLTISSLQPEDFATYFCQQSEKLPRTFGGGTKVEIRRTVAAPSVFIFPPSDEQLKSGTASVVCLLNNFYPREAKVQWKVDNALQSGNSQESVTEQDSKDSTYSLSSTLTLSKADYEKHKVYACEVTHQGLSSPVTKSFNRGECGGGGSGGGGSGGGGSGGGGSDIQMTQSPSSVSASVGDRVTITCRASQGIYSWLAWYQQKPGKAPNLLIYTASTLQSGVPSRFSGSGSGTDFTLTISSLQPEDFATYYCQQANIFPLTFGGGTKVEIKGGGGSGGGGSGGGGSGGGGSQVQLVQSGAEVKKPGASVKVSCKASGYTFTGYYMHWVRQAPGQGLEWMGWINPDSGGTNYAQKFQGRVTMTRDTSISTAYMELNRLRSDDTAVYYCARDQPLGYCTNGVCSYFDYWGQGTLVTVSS
# notes: Anti-CD40/CD137: Ly1630 heavy chain; Ly1630 light chain fused to Ly253 scFv (VL-VH)
# B5: Ly741 (bispecific antibody, human IgG1, kappa)
# heavy: B4 heavy
# light: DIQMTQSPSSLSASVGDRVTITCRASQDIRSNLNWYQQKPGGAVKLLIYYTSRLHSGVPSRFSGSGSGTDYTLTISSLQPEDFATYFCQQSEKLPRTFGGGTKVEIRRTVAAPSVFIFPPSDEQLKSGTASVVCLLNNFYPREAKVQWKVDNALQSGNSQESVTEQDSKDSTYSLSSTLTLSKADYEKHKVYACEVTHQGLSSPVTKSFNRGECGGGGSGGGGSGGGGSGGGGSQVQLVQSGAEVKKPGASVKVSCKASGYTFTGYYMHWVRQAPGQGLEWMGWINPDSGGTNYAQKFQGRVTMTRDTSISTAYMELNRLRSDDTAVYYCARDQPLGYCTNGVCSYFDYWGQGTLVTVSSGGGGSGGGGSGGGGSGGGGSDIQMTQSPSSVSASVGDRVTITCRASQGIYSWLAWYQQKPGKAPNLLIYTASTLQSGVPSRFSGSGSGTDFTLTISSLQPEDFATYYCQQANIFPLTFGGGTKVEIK
# notes: Anti-CD40/CD137: Ly1630 heavy chain; Ly1630 light chain fused to Ly253 scFv (VH-VL)
# B6: Ly742 (bispecific antibody, human IgG1, kappa)
# heavy: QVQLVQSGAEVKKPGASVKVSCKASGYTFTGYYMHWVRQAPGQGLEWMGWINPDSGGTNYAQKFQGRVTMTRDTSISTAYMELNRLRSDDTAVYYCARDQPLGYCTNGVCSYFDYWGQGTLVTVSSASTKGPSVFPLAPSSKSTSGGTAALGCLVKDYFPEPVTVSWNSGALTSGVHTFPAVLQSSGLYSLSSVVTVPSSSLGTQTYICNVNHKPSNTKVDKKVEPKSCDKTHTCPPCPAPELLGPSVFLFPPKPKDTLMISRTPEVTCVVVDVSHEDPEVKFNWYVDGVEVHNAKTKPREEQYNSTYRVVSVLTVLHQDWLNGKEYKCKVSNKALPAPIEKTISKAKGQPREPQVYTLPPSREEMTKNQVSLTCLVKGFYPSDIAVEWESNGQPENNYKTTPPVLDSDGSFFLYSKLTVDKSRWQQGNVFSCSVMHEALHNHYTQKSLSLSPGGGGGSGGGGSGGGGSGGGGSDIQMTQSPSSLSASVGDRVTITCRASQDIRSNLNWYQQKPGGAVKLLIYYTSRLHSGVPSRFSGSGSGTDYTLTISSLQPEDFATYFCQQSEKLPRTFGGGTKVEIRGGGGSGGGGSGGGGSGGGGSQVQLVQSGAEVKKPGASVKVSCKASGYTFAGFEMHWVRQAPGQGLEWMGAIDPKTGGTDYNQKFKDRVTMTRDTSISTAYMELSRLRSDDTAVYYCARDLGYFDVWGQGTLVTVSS
# light: DIQMTQSPSSVSASVGDRVTITCRASQGIYSWLAWYQQKPGKAPNLLIYTASTLQSGVPSRFSGSGSGTDFTLTISSLQPEDFATYYCQQANIFPLTFGGGTKVEIKRTVAAPSVFIFPPSDEQLKSGTASVVCLLNNFYPREAKVQWKVDNALQSGNSQESVTEQDSKDSTYSLSSTLTLSKADYEKHKVYACEVTHQGLSSPVTKSFNRGEC
# notes: Anti-CD40/CD137: Ly253-derived heavy chain fused to Ly1630 scFv (VL-VH); Ly253 light chain
# B7: Ly743 (bispecific antibody, human IgG1, kappa)
# heavy: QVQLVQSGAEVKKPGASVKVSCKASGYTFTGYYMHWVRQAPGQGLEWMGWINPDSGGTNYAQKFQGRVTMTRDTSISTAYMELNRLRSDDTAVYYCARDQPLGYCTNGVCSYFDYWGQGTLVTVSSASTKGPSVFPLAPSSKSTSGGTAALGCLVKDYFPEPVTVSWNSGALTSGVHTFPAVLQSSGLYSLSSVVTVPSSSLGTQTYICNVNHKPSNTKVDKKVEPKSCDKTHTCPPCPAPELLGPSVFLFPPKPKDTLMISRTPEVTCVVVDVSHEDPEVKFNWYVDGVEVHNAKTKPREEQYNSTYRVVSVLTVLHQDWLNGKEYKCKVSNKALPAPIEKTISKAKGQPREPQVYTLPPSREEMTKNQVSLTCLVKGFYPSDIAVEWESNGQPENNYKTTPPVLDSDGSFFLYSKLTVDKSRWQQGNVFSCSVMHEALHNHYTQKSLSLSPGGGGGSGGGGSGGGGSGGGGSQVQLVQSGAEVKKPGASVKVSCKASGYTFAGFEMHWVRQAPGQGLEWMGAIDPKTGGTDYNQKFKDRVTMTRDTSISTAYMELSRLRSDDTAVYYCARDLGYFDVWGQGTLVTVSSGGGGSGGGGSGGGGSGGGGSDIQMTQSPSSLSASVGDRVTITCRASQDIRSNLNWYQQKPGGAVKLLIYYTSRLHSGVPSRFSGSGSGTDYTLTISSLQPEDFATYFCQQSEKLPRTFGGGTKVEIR
# light: B6 light
# notes: Anti-CD40/CD137: Ly253-derived heavy chain fused to Ly1630 scFv (VH-VL); Ly253 light chain
# B8: Ly744 (bispecific antibody, human IgG1, kappa)
# heavy: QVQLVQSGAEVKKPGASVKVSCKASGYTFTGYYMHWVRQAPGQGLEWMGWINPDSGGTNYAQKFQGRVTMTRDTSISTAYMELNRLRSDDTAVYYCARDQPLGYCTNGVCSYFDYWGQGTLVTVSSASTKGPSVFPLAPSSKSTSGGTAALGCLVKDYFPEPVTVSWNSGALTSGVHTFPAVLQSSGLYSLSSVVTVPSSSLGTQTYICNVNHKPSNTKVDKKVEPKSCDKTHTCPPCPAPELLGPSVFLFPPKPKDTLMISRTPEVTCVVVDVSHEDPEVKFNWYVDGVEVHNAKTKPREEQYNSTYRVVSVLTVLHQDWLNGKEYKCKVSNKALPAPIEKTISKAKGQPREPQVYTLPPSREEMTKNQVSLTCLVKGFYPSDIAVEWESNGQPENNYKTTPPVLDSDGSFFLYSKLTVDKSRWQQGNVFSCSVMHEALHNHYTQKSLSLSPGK
# light: DIQMTQSPSSVSASVGDRVTITCRASQGIYSWLAWYQQKPGKAPNLLIYTASTLQSGVPSRFSGSGSGTDFTLTISSLQPEDFATYYCQQANIFPLTFGGGTKVEIKRTVAAPSVFIFPPSDEQLKSGTASVVCLLNNFYPREAKVQWKVDNALQSGNSQESVTEQDSKDSTYSLSSTLTLSKADYEKHKVYACEVTHQGLSSPVTKSFNRGECGGGGSGGGGSGGGGSGGGGSDIQMTQSPSSLSASVGDRVTITCRASQDIRSNLNWYQQKPGGAVKLLIYYTSRLHSGVPSRFSGSGSGTDYTLTISSLQPEDFATYFCQQSEKLPRTFGGGTKVEIRGGGGSGGGGSGGGGSGGGGSQVQLVQSGAEVKKPGASVKVSCKASGYTFAGFEMHWVRQAPGQGLEWMGAIDPKTGGTDYNQKFKDRVTMTRDTSISTAYMELSRLRSDDTAVYYCARDLGYFDVWGQGTLVTVSS
# notes: Anti-CD40/CD137: Ly253-derived heavy chain; Ly253 light chain fused to Ly1630 scFv (VL-VH)
# Target: T1, human CD137 ECD protein (His tag) (human, UniProt Q07011 24-186)
# T1 construct: extracellular domain; also called recombinant human CD137; not shown: His tag
# Assay: bridging ELISA: human CD137 ECD (His tag) coated, antibody titrated, then human PD-1 ECD (mouse IgG2a Fc tag), HRP anti-mouse IgG2a Fc; A450-A620
# Protocol: Exemplary anti-PD-1/CD137 bi-specific antibodies were analyzed by ELISA for their simultaneous binding to recombinant human PD-1 and human CD137. Briefly, human CD137 ECD protein (His tag) was diluted and coated onto an ELISA plate with a volume of 100 μL/well by incubation at 4° C. overnight. The next day, the plate was blocked with PBST-BSA buffer, then serially diluted samples of anti-PD-1/CD137 bi-specific antibodies were pipetted into appropriate wells at 50 μL/well, and the plate was incubated for 1 hour followed by washing. The extracellular domain (ECD) of human PD-1 protein (mouse IgG2a Fc tag) was added into the plate at 50 μL/well. After 1-hour incubation at room temperature, HRP-conjugated anti-Mouse IgG, Fc G2a specific antibody was added into the plate at 100 μL/well. The plate was incubated for 1 hour at room temperature followed by washing. TMB substrate solution was added at 100 μL/well and the color development was stopped by adding 100 uL/well Stop Solution (2N H₂SO₄). Absorbance at 450 nm and 620 nm was read by Tecan F200 Pro plate reader. GraphPad 7.0, “[Agonist] vs. response—Variable slope (four parameters)” was used to plot the binding data and calculate binding EC50 values.
row,Binder,EC50 (read off the curve) [µg/mL]
1,B1,~0.02
2,B2,~0.02
3,B3,~0.02

# Target: T2, human CD137 expressed on cells (human, UniProt Q07011 24-255)
# T2 construct: whole, on cells; also called 4-1BB; TNFRSF9
# Assay: FACS on CHO cells expressing human CD137 (MFI)
# Protocol: (§1) Anti-CD40/CD137 bi-specific antibodies were analyzed by FACS for their binding properties to human CD40 and/or human CD137 expressed on CHO cells. Briefly, cultured cells were harvested, counted and cell viability was evaluated using the Trypan Blue exclusion method. Viable cells were then adjusted to 2×10⁶ cells per mL in PBS containing 2% BSA. 100 μL of this cell suspension were further aliquoted per well into a V-bottom 96-well plate. […] After incubation for 2 hours at 4° C., cells were centrifuged (3 min, 1000×g), washed with 250 μL/well BSA-containing FACS Stain Buffer, resuspended and incubated for an additional 1 hour at 4° C. with 100 μL/well fluorochrome-conjugated anti-IgG antibody for detection of the bisepecific antibody. Cells were then washed with 250 μL/well BSA-containing FACS Stain Buffer, resuspended in 100 μL/well FACS Stain Buffer, acquired and analyzed using a FACS machine. Binding of the bispecific antibodies to human CD40 or human CD137 expressing CHO cells were evaluated and the mean fluorescence intensity is plotted in histograms or dot plots.
# T2 sequence (Q07011 24-255): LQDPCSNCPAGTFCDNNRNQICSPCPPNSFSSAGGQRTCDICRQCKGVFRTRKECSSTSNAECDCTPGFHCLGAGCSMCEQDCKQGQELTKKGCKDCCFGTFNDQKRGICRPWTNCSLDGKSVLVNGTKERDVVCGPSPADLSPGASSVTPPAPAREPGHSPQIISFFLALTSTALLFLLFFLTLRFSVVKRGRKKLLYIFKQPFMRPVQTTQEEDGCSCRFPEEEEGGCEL
row,Binder,EC50 (read off the curve) [µg/mL]
1,B4,~0.04
2,B5,~0.04
3,B6,~0.07
4,B7,~0.1
5,B8,~0.1

# Target: T3, human CD40 expressed on CHO cells (human, UniProt P25942 21-277)
# T3 construct: whole, on cells
# Assay: FACS on CHO cells expressing human CD40 (MFI)
# Protocol: as §1
# T3 sequence (P25942 21-277): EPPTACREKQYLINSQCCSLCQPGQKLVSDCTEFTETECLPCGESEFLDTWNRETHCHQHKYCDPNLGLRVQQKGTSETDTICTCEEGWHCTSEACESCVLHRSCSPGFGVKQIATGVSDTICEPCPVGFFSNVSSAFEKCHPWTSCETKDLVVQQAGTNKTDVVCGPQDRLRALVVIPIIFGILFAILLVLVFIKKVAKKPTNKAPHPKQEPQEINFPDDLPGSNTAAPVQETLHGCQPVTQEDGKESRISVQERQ
row,Binder,binding result
1,B4,binds
2,B5,binds
3,B6,binds
4,B7,binds
5,B8,binds

# Target: T2, human CD137 expressed on cells
# Assay: flow cytometry (FACS), MFI, CHO cells expressing human CD137
# Protocol: as §1, with “Exemplary anti-PD-1/CD137” for “Anti-CD40/CD137”, “PD-1” for “CD40”, “1000× g),” for “1000×g),”
row,Binder,EC50 (read off the curve) [µg/mL]
1,B1,~0.2
2,B2,~0.2
3,B3,~0.2

# Target: T4, human PD-1 expressed on cells (human, UniProt Q15116 25-288)
# T4 construct: whole, on cells; also called human PD-1 over-expressed on the CHO cells; Jurkat/NFkB-Luci/PD-1 cells
# Assay: flow cytometry (FACS), MFI, CHO cells expressing human PD-1
# Protocol: as §1, with “Exemplary anti-PD-1/CD137” for “Anti-CD40/CD137”, “PD-1” for “CD40”, “1000× g),” for “1000×g),”
# T4 sequence (Q15116 25-288): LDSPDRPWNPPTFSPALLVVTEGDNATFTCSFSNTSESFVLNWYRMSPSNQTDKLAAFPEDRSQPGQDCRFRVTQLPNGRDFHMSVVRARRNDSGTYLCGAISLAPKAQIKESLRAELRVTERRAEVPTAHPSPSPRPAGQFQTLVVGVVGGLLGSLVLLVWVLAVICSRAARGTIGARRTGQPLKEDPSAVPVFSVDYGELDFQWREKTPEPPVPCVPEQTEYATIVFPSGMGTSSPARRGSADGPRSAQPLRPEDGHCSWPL
row,Binder,EC50 (read off the curve) [µg/mL]
1,B1,~0.2
2,B2,~0.2
3,B3,~0.2
